Test results reported in paper PMC5835332.

Target: actin from bovine muscle, monomerized (G-actin), labelled with NT-647 dye (bovine) (UniProt P68138)
Assay: MST

Substance | Kd [nM]
F1_(P97-232), recombinant fragment of the P97 cilium adhesin (amino acids 106-758) (domain or fragment) | 34.2
F3_(P97-232), recombinant fragment of the P97 cilium adhesin (amino acids 768-938) (domain or fragment) | 1790
